Laboratory results published in US20190170753A1 (ICAHN SCHOOL OF MEDICINE AT MOUNT SINAI, published 2019).

Experiments:
Assay in all cases: peptide EIA, 2 ug/mL IgG;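 also: purified mouse IgG binding to individually well-coated synthetic peptides, detected with peroxidase anti-mouse IgG Fc and o-phenylenediamine, IgG incubated at least 1 h at room temperature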
HCV core peptide 45 = HCV core peptide 45 (hepatitis C virus, N-terminal biotin; C-terminal amide)
Protocol: (§1) The coated plates were kept dry in a sealed foil pouch and stored at <10 degrees C. until ready for use. A peptide coated plate for each test antibody was blocked using 3% BSA in PBS with 0.5% Tween 20. The blocked plates were washed with distilled water and a 2 ug/mL solution of purified IgG from each test sample diluted in BSA block solution was added to each peptide coated well of the blocked plate and allowed to incubate at room temperature for at least one hour. Following incubation the plates were washed with distilled water. A 200 ng/mL solution of peroxidase labeled F(ab′)2 fragment goat anti-mouse IgG Fc fragment specific (Jackson Immunoresearch) in BSA block solution was added to all wells and incubated at room temperature for 30 minutes. The plates were washed with distilled water and o-phenylenediamine substrate was used as the chromagen to generate signal. Plates were read at 492 nm and the results were analyzed.

HCV core peptide 50 = target: T1, HCV core peptide 50 (hepatitis C virus, HELM PEPTIDE1{[O=C1N[C@H]2[C@H](CS[C@H]2CCCCC(=O)[*:2])N1].S.G.S.G.S.P.R.G.S.R.P.S.W.G.P.T.D.P.R.[am]}$$$$V2.0; SMILES …)
T1 construct: also called aa 99-113
T1 peptide: SGSGSPRGSRPSWGPTDPR
Protocol: as §1

HCV core peptide 72 = target: T2, HCV core peptide 72 (hepatitis C virus, N-terminal biotin; C-terminal amide)
T2 construct: range 143-157
Protocol: as §1

HCV core peptide 67 = HCV core peptide 67 (hepatitis C virus, N-terminal biotin; C-terminal amide)
Protocol: as §1

HCV core peptide 65 = HCV core peptide 65 (hepatitis C virus, N-terminal biotin; C-terminal amide)
Protocol: as §1

HCV core peptide 62 = target: T3, HCV core peptide 62 (hepatitis C virus, N-terminal biotin; C-terminal amide)
T3 construct: range 123-137
Protocol: as §1

HCV core peptide 13 = target: T4, HCV core peptide 13 (hepatitis C virus, N-terminal biotin; C-terminal amide)
T4 construct: range 25-39
Protocol: as §1

HCV core peptide 66 = HCV core peptide 66 (hepatitis C virus, N-terminal biotin; C-terminal amide)
Protocol: as §1

HCV core peptide 86 = HCV core peptide 86 (hepatitis C virus, N-terminal biotin; C-terminal amide)
Protocol: as §1

HCV core peptide 42 = target: T5, HCV core peptide 42 (hepatitis C virus, N-terminal biotin; C-terminal amide)
T5 construct: range 83-97
Protocol: as §1

HCV core peptide 47 = HCV core peptide 47 (hepatitis C virus, N-terminal biotin; C-terminal amide)
Protocol: as §1

HCV core peptide 9 = target: T6, HCV core peptide 9 (hepatitis C virus, N-terminal biotin; C-terminal amide)
T6 construct: range 17-31
Protocol: as §1

HCV core peptide 82 = target: T7, HCV core peptide 82 (hepatitis C virus, N-terminal biotin; C-terminal amide)
T7 construct: range 163-177
Protocol: as §1

HCV core peptide 15 = target: T8, HCV core peptide 15 (hepatitis C virus, N-terminal biotin; C-terminal amide)
T8 construct: range 29-43
Protocol: as §1

HCV core peptide 68 = target: T9, HCV core peptide 68 (hepatitis C virus, N-terminal biotin; C-terminal amide)
T9 construct: range 135-149
Protocol: as §1

HCV core peptide 58 = HCV core peptide 58 (hepatitis C virus, N-terminal biotin; C-terminal amide)
Protocol: as §1

HCV core peptide 54 = target: T10, HCV core peptide 54 (hepatitis C virus, HELM PEPTIDE1{[O=C1N[C@H]2[C@H](CS[C@H]2CCCCC(=O)[*:2])N1].S.G.S.G.W.G.P.T.D.P.R.R.R.S.R.N.L.G.K.[am]}$$$$V2.0; SMILES …)
T10 peptide: SGSGWGPTDPRRRSRNLGK
Protocol: as §1

HCV core peptide 46 = HCV core peptide 46 (hepatitis C virus, N-terminal biotin; C-terminal amide)
Protocol: as §1

HCV core peptide 84 = HCV core peptide 84 (hepatitis C virus, N-terminal biotin; C-terminal amide)
Protocol: as §1

HCV core peptide 11 = target: T11, HCV core peptide 11 (hepatitis C virus, N-terminal biotin; C-terminal amide)
T11 construct: range 21-35
Protocol: as §1

HCV core peptide 16 = target: T12, HCV core peptide 16 (hepatitis C virus, N-terminal biotin; C-terminal amide)
T12 construct: range 31-45
Protocol: as §1

HCV core peptide 69 = HCV core peptide 69 (hepatitis C virus, N-terminal biotin; C-terminal amide)
Protocol: as §1

HCV core peptide 28 = target: T13, HCV core peptide 28 (hepatitis C virus, N-terminal biotin; C-terminal amide)
T13 construct: range 55-69
Protocol: as §1

HCV core peptide 41 = target: T14, HCV core peptide 41 (hepatitis C virus, N-terminal biotin; C-terminal amide)
T14 construct: range 81-95
Protocol: as §1

HCV core peptide 30 = target: T15, HCV core peptide 30 (hepatitis C virus, N-terminal biotin; C-terminal amide)
T15 construct: range 59-73
Protocol: as §1

HCV core peptide 60 = HCV core peptide 60 (hepatitis C virus, N-terminal biotin; C-terminal amide)
Protocol: as §1

HCV core peptide 52 = target: T16, HCV core peptide 52 (hepatitis C virus, HELM PEPTIDE1{[O=C1N[C@H]2[C@H](CS[C@H]2CCCCC(=O)[*:2])N1].S.G.S.G.S.R.P.S.W.G.P.T.D.P.R.R.R.S.R.[am]}$$$$V2.0; SMILES …)
T16 peptide: SGSGSRPSWGPTDPRRRSR
Protocol: as §1

HCV core peptide 29 = target: T17, HCV core peptide 29 (hepatitis C virus, N-terminal biotin; C-terminal amide)
T17 construct: range 57-71
Protocol: as §1

HCV core peptide 10 = target: T18, HCV core peptide 10 (hepatitis C virus, N-terminal biotin; C-terminal amide)
T18 construct: range 19-33
Protocol: as §1

HCV core peptide 34 = target: T19, HCV core peptide 34 (hepatitis C virus, N-terminal biotin; C-terminal amide)
T19 construct: range 67-81
Protocol: as §1

HCV core peptide 32 = target: T20, HCV core peptide 32 (hepatitis C virus, N-terminal biotin; C-terminal amide)
T20 construct: range 63-77
Protocol: as §1

HCV core peptide 81 = target: T21, HCV core peptide 81 (hepatitis C virus, N-terminal biotin; C-terminal amide)
T21 construct: range 161-175
Protocol: as §1

B1: Neo4 mouse monoclonal antibody (antibody, V domains shown)
VH: QIQLKESGPAVIKPSQSLSLTCIVSGFSITSSVYCWQWIRQPPGKGLEWMGRICYDGSVDYSPSITSRGTISRDTSLNKVFFQLSSVTNEDTAMYYCSRENHIDYYDTTYPSFDVWGAGTTVTVSS
VL: DIVLTQSPASLIVSLGQRATISCRASKSVNEYGYTYMHWYQQKPGLPPKLLIYLASNLDSGVPARFSGSGSGTDFTLNIHPVEEEDAATYYCQHSRELPYTFGGGTKLEIKR
notes: Mouse hybridoma antibody, isotype IgG1, purified with Protein G; also called HCV Neo4
- OD (A492 nm) (HCV core peptide 45): 0.04 OD
- OD (A492 nm) (HCV core peptide 50): 1.03 OD
- OD (A492 nm) (HCV core peptide 72): 0.04 OD
- OD (A492 nm) (HCV core peptide 67): 0.05 OD
- OD (A492 nm) (HCV core peptide 65): 0.04 OD
- OD (A492 nm) (HCV core peptide 62): 0.05 OD
- OD (A492 nm) (HCV core peptide 13): 0.05 OD
- OD (A492 nm) (HCV core peptide 66): 0.05 OD
- OD (A492 nm) (HCV core peptide 86): 0.05 OD
- OD (A492 nm) (HCV core peptide 42): 0.04 OD
- OD (A492 nm) (HCV core peptide 47): 0.05 OD
- OD (A492 nm) (HCV core peptide 9): 0.05 OD
- OD (A492 nm) (HCV core peptide 82): 0.04 OD
- OD (A492 nm) (HCV core peptide 15): 0.06 OD
- OD (A492 nm) (HCV core peptide 68): 0.04 OD
- OD (A492 nm) (HCV core peptide 58): 0.05 OD
- OD (A492 nm) (HCV core peptide 54): 1.01 OD
- OD (A492 nm) (HCV core peptide 46): 0.06 OD
- OD (A492 nm) (HCV core peptide 84): 0.05 OD
- OD (A492 nm) (HCV core peptide 11): 0.05 OD
- OD (A492 nm) (HCV core peptide 16): 0.06 OD
- OD (A492 nm) (HCV core peptide 69): 0.05 OD
- OD (A492 nm) (HCV core peptide 28): 0.04 OD
- OD (A492 nm) (HCV core peptide 41): 0.04 OD
- OD (A492 nm) (HCV core peptide 30): 0.05 OD
- OD (A492 nm) (HCV core peptide 60): 0.06 OD
- OD (A492 nm) (HCV core peptide 52): 0.93 OD
- OD (A492 nm) (HCV core peptide 29): 0.04 OD
- OD (A492 nm) (HCV core peptide 10): 0.05 OD
- OD (A492 nm) (HCV core peptide 34): 0.04 OD
- OD (A492 nm) (HCV core peptide 32): 0.06 OD
- OD (A492 nm) (HCV core peptide 81): 0.04 OD
